Test [1] concerns the target T1, Human B7-H6 (human, UniProt Q68D85 25-262).
T1 construct: Bought protein; also called human B7-H6 protein; ACRO B76-H52H8
T1 sequence (looked up): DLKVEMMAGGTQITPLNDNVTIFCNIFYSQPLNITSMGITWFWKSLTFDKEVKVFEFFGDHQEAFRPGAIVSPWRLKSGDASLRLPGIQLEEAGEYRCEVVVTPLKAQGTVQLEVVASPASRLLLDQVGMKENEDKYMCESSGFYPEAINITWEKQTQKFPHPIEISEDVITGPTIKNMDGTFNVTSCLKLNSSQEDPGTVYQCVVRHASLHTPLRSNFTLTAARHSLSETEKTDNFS
In words: ELISA, B7 family protein immobilized on plate, serially diluted antibody. The procedure:
(§1) Human PD-Ll protein (see the table above), human B7-H2 protein, human B7-H3 protein, human B7-H4 protein, human B7-H5 protein, human B7-H6 protein, human B7-1 protein, human B7-2 protein, human PD-L2 protein, human B7-H7 protein, and human BTNL2 protein were separately immobilized on 96-well plates by incubation at 4° C. overnight. The 96-well plates were then blocked by incubation with 1% BSA in PBS at 37° C. for 1 h. After blocking, the 96-well plates were washed 3 times with PBST (PBS containing 0.05% Tween 20). […] After incubation, the 96-well plates were washed 3 times with PBST, incubated with a secondary antibody (see the table above) in binding buffer at 37° C. for 1 h, and then washed again. TMB was added for color development, and the reaction was stopped by 1 M H₂SO₄.

Test [2] addresses T2, Human B7-H2, His Tag (human, UniProt O75144 19-258).
T2 construct: Bought protein; also called human B7-H2 protein; ACRO B72-H5221; not shown: His tag
T2 sequence (looked up): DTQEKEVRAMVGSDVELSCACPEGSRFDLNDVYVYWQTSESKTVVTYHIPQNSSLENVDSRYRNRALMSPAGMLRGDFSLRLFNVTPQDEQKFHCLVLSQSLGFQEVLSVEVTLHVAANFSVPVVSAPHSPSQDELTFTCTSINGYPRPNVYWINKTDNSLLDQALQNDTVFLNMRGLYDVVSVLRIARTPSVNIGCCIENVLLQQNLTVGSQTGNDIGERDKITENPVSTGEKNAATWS
The description is as above. The procedure:
as §1

The target in test [3] is T3, Human PD-L1, His Tag (human, UniProt Q9NZQ7 19-238).
T3 construct: Bought protein; also called human PD-L1 protein; ACRO PD1-H5229; not shown: His tag
T3 sequence (Q9NZQ7 19-238 limits assumed): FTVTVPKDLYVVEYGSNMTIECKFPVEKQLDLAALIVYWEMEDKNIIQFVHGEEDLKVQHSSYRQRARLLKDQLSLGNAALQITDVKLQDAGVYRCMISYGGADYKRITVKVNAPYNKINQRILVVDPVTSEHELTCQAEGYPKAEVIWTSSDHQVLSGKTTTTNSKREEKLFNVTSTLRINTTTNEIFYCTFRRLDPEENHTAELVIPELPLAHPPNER
Described as above. The procedure: as §1

In test [4] the target is T4, Human B7-H4 protein, His Tag (human, UniProt Q7Z7D3 29-258).
T4 construct: Bought protein; also called ACRO B74-H5222; not shown: His tag
T4 sequence (looked up): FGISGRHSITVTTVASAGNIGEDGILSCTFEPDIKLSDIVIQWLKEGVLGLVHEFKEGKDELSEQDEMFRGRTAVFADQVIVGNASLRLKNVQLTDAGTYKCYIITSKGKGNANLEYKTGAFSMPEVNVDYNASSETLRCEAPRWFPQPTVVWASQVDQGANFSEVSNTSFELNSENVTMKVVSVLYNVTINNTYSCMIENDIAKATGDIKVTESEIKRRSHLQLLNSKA
Described as above. The procedure: as §1

For test [5], the target named is T5, Human B7-H5, His Tag (human, UniProt Q9H7M9 33-194).
T5 construct: Bought protein; also called human B7-H5 protein; ACRO B75-H52H0; not shown: His tag
T5 sequence (looked up): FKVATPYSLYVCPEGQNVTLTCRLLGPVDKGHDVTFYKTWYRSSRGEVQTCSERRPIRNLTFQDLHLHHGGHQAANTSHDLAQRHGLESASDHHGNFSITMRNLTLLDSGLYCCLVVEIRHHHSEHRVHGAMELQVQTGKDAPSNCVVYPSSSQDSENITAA
Described as above. The procedure:
as §1

Test [6] concerns the target T6, human full-length B7H3 expressed on MCF-7 cells (human, UniProt Q5ZPR3 29-534).
T6 sequence: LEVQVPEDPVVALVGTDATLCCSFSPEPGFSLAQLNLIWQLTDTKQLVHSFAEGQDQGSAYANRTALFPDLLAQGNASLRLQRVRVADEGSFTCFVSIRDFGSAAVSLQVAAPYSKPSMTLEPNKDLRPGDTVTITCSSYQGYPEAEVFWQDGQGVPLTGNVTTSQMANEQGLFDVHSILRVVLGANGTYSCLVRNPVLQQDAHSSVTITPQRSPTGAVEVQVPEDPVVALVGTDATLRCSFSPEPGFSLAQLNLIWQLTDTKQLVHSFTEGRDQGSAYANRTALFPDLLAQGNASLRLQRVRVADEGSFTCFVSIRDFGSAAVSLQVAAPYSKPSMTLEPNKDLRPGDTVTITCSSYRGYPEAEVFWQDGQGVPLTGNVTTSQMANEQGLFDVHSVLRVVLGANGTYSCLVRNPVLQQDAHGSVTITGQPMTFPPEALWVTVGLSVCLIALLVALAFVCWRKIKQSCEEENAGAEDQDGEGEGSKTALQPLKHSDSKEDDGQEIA
In words: cell-based or functional assay.

Test [7] addresses T6, human full-length B7H3 expressed on …. In words: flow cytometry (FACS) on MCF-7 cells expressing human full-length B7H3. The procedure: FACS was used to detect the binding of antibodies to human B7H3. This method allows quantitative analysis and identification of specific molecules expressed on the surface of living cells. Unlabeled cells were used as a control to set a threshold before the assay, and the percentage change for each group that exceeded the fluorescence intensity threshold was analyzed. MCF-7 cells expressing human full-length B7H3 (1×10⁵ cells/well) were incubated with various concentrations of antibodies (3.16-fold serially diluted with 1×DPBS/1% BSA from 50 nM to 0.0005 nM) in a volume of 100 μL/well in a refrigerator set to 4° C. for 1 h. Anti-human B7H3 reference antibody enoblituzumab (MacroGeneics) was used as a positive control. Human IgG1 isotype antibody was used as a negative control. After washing the cells with 1×DPBS/1% BSA, Alexa 647 goat anti-human antibody (diluted in a 1:500 ratio in 1×DPBS/1% BSA) was added. The cells were incubated in a refrigerator set to 4° C. for 0.5 h in the dark. The mean fluorescence intensity (MFI) of the cells was measured by a flow cytometry and analyzed by FlowJo. EC₅₀ values were calculated by four-parameter non-linear regression analysis using GraphPad Prism 7 software.
A general note: A flow cytometer gives signals particle by particle.

This is an account of results in patent US20240148892A1 (DUALITY BIOLOGICS SUZHOU, published 2024).

B1: W301088-1.145.16-z3-p1-uIgG1KV320 (antibody, V domains shown)
VH: QVQLQESGPGLVKPSQTLSLTCTVTDYSITGDYAWNWIRQHPGKGLEWIGYISYSGSTSYNPSLQSRVTISRDTSKNQFSLKLSSVTAADTAVYFCARSLGRRWYFVVWGQGTTVTVSS
VL: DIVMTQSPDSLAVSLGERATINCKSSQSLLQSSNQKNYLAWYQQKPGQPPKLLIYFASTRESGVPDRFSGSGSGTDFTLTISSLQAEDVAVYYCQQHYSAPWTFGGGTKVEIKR
notes: Humanized, PTM-removed (VL N027dQ) human IgG1 LALA kappa antibody; also called WBP301088; W301088-z3-p1
Broadly, the EC50 is the concentration giving half of the maximal effect. Turning to B1, the binding result in test [1], in test [2], in test [3], in test [4] and in test [5] was “no binding” in each case. Further, the “Antibody internalization EC50 (nM), MCF-7 cells, high-content imaging” value (shortened to “Antibody internalization EC50 (nM)”) in test [6] is 0.44 nM. Besides, a half-maximal response in test [7] (EC50) required 1.08 nM.

B2: W301088-1.145.16-xIgG1KV320 (antibody, V domains shown)
VH: DVQLQESGPGLVKPSQSLSLTCTVTDYSITGDYAWNWIRQFPGNKLEWMGYISYSGSTSYNPSLQSRISITRDTSKNQFFLQLNSVTSEDTATYFCARSLGRRWYFVVWGAGTTVTVSA
VL: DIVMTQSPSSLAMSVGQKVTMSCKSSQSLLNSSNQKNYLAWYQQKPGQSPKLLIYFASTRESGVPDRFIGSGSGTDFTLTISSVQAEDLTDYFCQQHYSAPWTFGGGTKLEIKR
Turning to B2, in test [6], the “Antibody internalization EC50 (nM)” value was found to be 0.51 nM. For the same molecule, the EC50 in test [7] is 1.16 nM.

B3: Enoblituzumab (MacroGenics) (antibody, V domains shown)
VH: EVQLVESGGGLVQPGGSLRLSCAASGFTFSSFGMHWVRQAPGKGLEWVAYISSDSSAIYYADTVKGRFTISRDNAKNSLYLQMNSLRDEDTAVYYCGRGRENIYYGSRLDYWGQGTTVTVSS
VL: DIQLTQSPSFLSASVGDRVTITCKASQNVDTNVAWYQQKPGKAPKALIYSASYRYSGVPSRFSGSGSGTDFTLTISSLQPEDFATYYCQQYNNYPFTFGQGTKLEIKR
With B3, the “Antibody internalization EC50 (nM)” value in test [6] was 1.95 nM. This molecule gave a half-maximal effective concentration (EC50) in test [7] of 2.49 nM.
